Laboratory results from patent publication US8383117.
Where no end group is shown, it is not given here. The star is where a group is joined. Biotin = O=C1N[C@H]2[C@H](CS[C@H]2CCCCC(=O)*)N1

What was measured:
[1] = molecular target: VB1-008 monoclonal antibody; assay: peptide in molar excess (20× to 200×) against 0.5 µM VB1-008, flow cytometry on MDA-MB-435S cells
[2] = molecular target: Peptide 2 (Biotin-…) (human); assay: ELISA on peptide-coated plates, 75 µg/mL VB1-008; reference Peptide 3

| competition efficiency [1] [%] | percent of the binding observed with Peptide 3 [2] [%] | Binder |
| --- | --- | --- |
| 60 |  | Biotin-RIPATNMDSSH [Peptide 2 (Biotin-…)] |
|  | 50 to 60 | VB1-008 monoclonal antibody (antibody, V domains shown) VH: QVQLQELGPRLVRPSQTLILTCTVSGGSVSGDEYYWSWLRQTPGKGLEWIGYMSYRGSSYYSPSLQSRVTIAVDRSKNEFSLKLTSVTAADAAVYFCARKYCGGDCRSGFDIWGRGTMVTVAS VL: YELTQPPSVSVSPGQKAFITCSGDNLGNKYVCWYQQKPGQSPVLVIYEDTKRPSGIPERFSASNSGNTATLTISGTQPIDEADYYCQAWDSRTEIFGTGTKVTVLS |
| 96 |  | Biotin-ATNMDSSHSIT [Peptide 3 (Biotin-…)] |
